Results taken from US20230312755A1 (ANGITIA, published 2023).

T1: cynomolgus monkey Sclerostin (cynomolgus monkey, UniProt Q9BG78 24-213 (Chlorocebus aethiops entry))
T1 chain: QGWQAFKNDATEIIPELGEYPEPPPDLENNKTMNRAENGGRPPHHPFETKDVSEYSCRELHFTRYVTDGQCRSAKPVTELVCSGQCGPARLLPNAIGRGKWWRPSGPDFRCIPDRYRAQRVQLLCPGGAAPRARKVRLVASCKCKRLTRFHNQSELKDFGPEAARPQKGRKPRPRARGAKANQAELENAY

T2: human Sclerostin (human, UniProt Q9BQB4 24-213)
T2 construct: Analyte of the BLI assays and the protein added in the reporter assays; also called hSclerostin; SOST
T2 sequence: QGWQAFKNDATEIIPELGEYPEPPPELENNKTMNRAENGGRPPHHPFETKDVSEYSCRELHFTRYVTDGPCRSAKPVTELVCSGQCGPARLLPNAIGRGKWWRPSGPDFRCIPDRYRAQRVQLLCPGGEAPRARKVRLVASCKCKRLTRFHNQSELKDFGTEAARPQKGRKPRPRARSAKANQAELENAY

T3: human DKK1 (human, UniProt O94907 32-266)
T3 construct: Analyte in BLI and the protein added in the reporter assay; also called hDKK1; Dickkopf-1
T3 sequence (looked up): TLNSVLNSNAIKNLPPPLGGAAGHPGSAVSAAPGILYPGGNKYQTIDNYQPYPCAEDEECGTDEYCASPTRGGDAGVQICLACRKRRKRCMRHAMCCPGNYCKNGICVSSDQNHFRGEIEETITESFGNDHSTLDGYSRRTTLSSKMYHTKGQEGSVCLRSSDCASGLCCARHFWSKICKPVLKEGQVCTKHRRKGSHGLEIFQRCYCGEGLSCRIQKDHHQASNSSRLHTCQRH


How the values were obtained:
[1] = biological target: T1, cynomolgus monkey Sclerostin; assay: BLI (Gator), antibody on anti-hFc biosensor, Sclerostin as analyte, 1:1 global fit
Protocol: (§1) The binding affinity of humanized anti-Sclerostin antibodies to human and cynomolgus monkey Sclerostin were determined with bio-layer interferometry using a Gator instrument (Probe Life). Antibodies were immobilized on an anti-hFc biosensor, using a […]. Serial dilutions of human Sclerostin and cynomolgus monkey Sclerostin from 4 μg/ml by two folds in kinetics buffer (PBS, pH 7.4, 0.05% Tween-20, 0.2% BSA, 10 μM biotin) were used as the analytes. Affinity (KD) and kinetic parameters (Kₒₙ and Koff) were calculated from a global fit (1:1) of the data using the Gator software.

human Sclerostin [2] = biological target: T2, human Sclerostin; assay: as above
Protocol: as §1

human Sclerostin [3] = biological target: T2, human Sclerostin; assay: cell-based or functional assay
human DKK1 [4] = biological target: T3, human DKK1; assay: BLI (Gator), hAb-2 on anti-hFc probe already holding hSclerostin, hDKK1 as second analyte
Protocol: The bsAb constructs (5 μg/ml) were captured to the anti-hFc HFC probe, then sequentially adding hSclerostin (2 μg/ml) and hDKK1 (2 μg/ml) in kinetics buffer (PBS, pH 7.4, 0.05% Tween-20, 0.2% BSA).

human DKK1 [5] = biological target: T3, human DKK1; assay: BLI (Gator), antibody on anti-hFc biosensor, antigen as analyte, 1:1 global fit
Protocol: (§2) Binding kinetics and affinities of anti-Sclerostin×anti-DKK1 and anti-Sclerostin×anti-RANKL bispecific antibodies were measured with Gator (Probe Life) bio-layer interferometry (BLI). Antibodies were immobilized on an anti-hFc biosensor, using a 5 μg/ml solution. Serial dilutions of sclerostin (from 1 μg/ml), DKK1 (from 2 μg/ml), or RANKL (from 4 μg/ml) by two folds in kinetics buffer (PBS, pH 7.4, 0.05% Tween-20, 0.2% BSA) were used as the analytes. Affinity (KD) and kinetic parameters (Kₒₙ and Koff) were calculated from a global fit (1:1) of the data using the Gator software.

human Sclerostin [6] = biological target: T2, human Sclerostin; assay: as above
Protocol: as §2

human DKK1 [7] = biological target: T3, human DKK1; assay: BLI (Gator), antibody on anti-hFc biosensor, antigen as analyte; koff at LOD, KD estimated
Protocol: as §2

human Sclerostin [8] = biological target: T2, human Sclerostin; assay: as above
Protocol: as §2

human DKK1 [9] = biological target: T3, human DKK1; assay: cell-based or functional assay
human Sclerostin [10] = biological target: T2, human Sclerostin; assay: cell-based or functional assay; remark: listed apart in the source

Kd [1] [nM]	koff [1] [s⁻¹]	kon [1] [M⁻¹ s⁻¹]	Kd (human Sclerostin [2]) [nM]	koff (human Sclerostin [2]) [s⁻¹]	kon (human Sclerostin [2]) [M⁻¹ s⁻¹]	EC50, Sclerostin-neutralisation activity in HEK293/TCF/LEF/Wnt1 cells (luciferase reporter) (human Sclerostin [3]) [nM]	binding result (human DKK1 [4])	kon (human DKK1 [5]) [M⁻¹ s⁻¹]	kon (human Sclerostin [6]) [M⁻¹ s⁻¹]	Kd (human DKK1 [7]) [nM]	Kd (human Sclerostin [8]) [nM]	EC50, DKK1 neutralization activity in HEK293/TCF/LEF/Wnt1 reporter gene assay (human DKK1 [9]) [nM]	EC50, Sclerostin neutralization activity in HEK293/TCF/LEF/Wnt1 reporter gene assay (human Sclerostin [10]) [nM]	Binder
0.055	8.06e-05	1.54e+06	0.24	0.0002	780000	14.9	no binding (tested: 2 µg/ml)	–	–	–	–	–	–	hAb-2 (antibody, V domains shown, Humanized 93B1B7; also called humanized anti-Sclerostin antibody hAb-2) VH: EVQLVQSGAEVKKPGASVKVSCKASGYTFTDYEIHWVRQAPGKGLEWMGAIDPETGGTAYNQKFKGRVTMTTDTSTSTAYMELRSLRSDDTAVYYCYSYDYVTYWGQGTTVTVSS VL: DIQMTQSPSSLSASVGDRVTITCRSSQSLLYSDGRTYLNWYQQKPGKSPKRLIYLVSKLDSGVPDRFSGSGSGTDFTLTISSLQPEDFATYYCWQGTHLPHTFGGGTKVEIK
–	–	–	–	–	–	–	–	330000	2.62e+06	~0.01	~0.01	41.4	63.8	BAP0061 (bispecific antibody, human IgG4 S228P, kappa, Asymmetric knob-into-hole full length antibody: first Fab (hAb-2) recognizes Sclerostin, second Fab (11H10) recognizes DKK1) heavy 1: EVQLVQSGAEVKKPGASVKVSCKASGYTFTDYEIHWVRQAPGKGLEWMGAIDPETGGTAYNQKFKGRVTMTTDTSTSTAYMELRSLRSDDTAVYYCYSYDYVTYWGQGTTVTVSSASTKGPSVFPLAPCSRSTSESTAALGCLVKDYFPEPVTVSWNSGALTSGVHTFPAVLQSSGLYSLSSVVTVPSSSLGTKTYTCNVDHKPSNTKVDKRVESKYGPPCPPCPAPEFLGGPSVFLFPPKPKDTLMISRTPEVTCVVVDVSQEDPEVQFNWYVDGVEVHNAKTKPREEQFNSTYRVVSVLTVLHQDWLNGKEYKCKVSNKGLPSSIEKTISKAKGQPREPQVYTLPPSQEEMTKNQVSLSCAVKGFYPSDIAVEWESNGQPENNYKTTPPVLDSDGSFFLVSRLTVDKSRWQEGNVFSCSVMHEALHNRFTQKSLSLSLGK light 1: DIQMTQSPSSLSASVGDRVTITCRSSQSLLYSDGRTYLNWYQQKPGKSPKRLIYLVSKLDSGVPDRFSGSGSGTDFTLTISSLQPEDFATYYCWQGTHLPHTFGGGTKVEIKRTVAAPSVFIFPPSDEQLKSGTASVVCLLNNFYPREAKVQWKVDNALQSGNSQESVTEQDSKDSTYSLSSTLTLSKADYEKHKVYACEVTHQGLSSPVTKSFNRGEC heavy 2: not shown light 2: DIRMTQSPFSLSASVGDRVTITCLASEDIYSDLAWYQQKPAKAPKLFIYNANSLQNGVPSRFSGSGSGTDYTLTISSLQPEDFATYYCQQYNNYPPTFGGGTKVEIKRTVAAPSVFICPPSDEQLKSGTASVVCLLNNFYPREAKVQWKVDNALQSGNSQESVTEQDSKDSTYSLSSTLTLSKADYEKHKVYACEVTHQGLSSPVTKSFNRGES
–	–	–	–	–	–	–	–	129000	2.59e+06	~0.01	~0.01	44.7	65.4	BAP0063 (bispecific antibody, human IgG4 S228P, kappa, Asymmetric knob-into-hole full length antibody: first Fab (hAb-2) recognizes Sclerostin, second Fab (11H10) recognizes DKK1) heavy 1: EVQLVQSGAEVKKPGASVKVSCKASGYTFTDYEIHWVRQAPGKGLEWMGAIDPETGGTAYNQKFKGRVTMTTDTSTSTAYMELRSLRSDDTAVYYCYSYDYVTYWGQGTTVTVSSASTKGPSVFPLAPCSRSTSESTAALGCLVKDYFPEPVTVSWNSGALTSGVHTFPAVLQSSGLYSLSSVVTVPSSSLGTKTYTCNVDHKPSNTKVDKRVESKYGPPCPPCPAPEFLGGPSVFLFPPKPKDTLMISRTPEVTCVVVDVSQEDPEVQFNWYVDGVEVHNAKTKPREEQFNSTYRVVSVLTVLHQDWLNGKEYKCKVSNKGLPSSIEKTISKAKGQPREPQVYTLPPSQEEMTKNQVSLSCAVKGFYPSDIAVEWESNGQPENNYKTTPPVLDSDGSFFLVSRLTVDKSRWQEGNVFSCSVMHEALHNRFTQKSLSLSLGK light 1: DIQMTQSPSSLSASVGDRVTITCRSSQSLLYSDGRTYLNWYQQKPGKSPKRLIYLVSKLDSGVPDRFSGSGSGTDFTLTISSLQPEDFATYYCWQGTHLPHTFGGGTKVEIKRTVAAPSVFIFPPSDEQLKSGTASVVCLLNNFYPREAKVQWKVDNALQSGNSQESVTEQDSKDSTYSLSSTLTLSKADYEKHKVYACEVTHQGLSSPVTKSFNRGEC heavy 2: not shown light 2: DIRMTQSPFSLSASVGDRVTITCLASEDIYSDLAWYQQKPAKAPKLFIYNANSLQNGVPSRFSGSGSGTDYTLTISSLQPEDFATYYCQQYNNYPPTFGGGTKVEIKRTVAAPSVFIFPPSDEQLKSGTASVVCLLNNFYPREAKVQWKVDNALQSGNSCESVTEQDSKDSTYSLSSTLTLSKADYEKHKVYACEVTHQGLSSPVTKSFNRGES
